# According to patent publication US20140206607A1 (INDIANA UNIVERSITY RESEARCH AND TECHNOLOGY, published 2014):
# Numbered stars: 1 amine (or outer) side, 2 acyl side, 3 side chain; on linkers, the order of the positions; unused ones are H or OH. Square brackets hold non-standard residues; d marks the D form. Primed or numbered codes have the meaning given here. Side chains are listed from the residue outwards. Ends that are not written are not given here. * marks the point of attachment. 40K‑TE PEG = 40 kDa PEG covalently bound via thioether, formed by reaction of the free thiol of the peptide (Cys side chain) with an iodoacetic-functionalized PEG; 20K‑TE PEG″ = 20 kDa PEG attached via a thioether, formed by reacting the free thiol of the peptide with an iodoacetic-functionalized PEG; 12K‑ME PEG = 12 kDa PEG bound via maleimido-thioether; γGlu = O=C(O)[C@H](CCC(=O)[*:2])N[*:1]; Palmitoyl = CCCCCCCCCCCCCCCC(=O)*; EC16 = not defined here; Aib = CC(C)(N)C(=O)O
# T1: GIP receptor (UniProt P48546 22-466)
# T1 sequence (looked up): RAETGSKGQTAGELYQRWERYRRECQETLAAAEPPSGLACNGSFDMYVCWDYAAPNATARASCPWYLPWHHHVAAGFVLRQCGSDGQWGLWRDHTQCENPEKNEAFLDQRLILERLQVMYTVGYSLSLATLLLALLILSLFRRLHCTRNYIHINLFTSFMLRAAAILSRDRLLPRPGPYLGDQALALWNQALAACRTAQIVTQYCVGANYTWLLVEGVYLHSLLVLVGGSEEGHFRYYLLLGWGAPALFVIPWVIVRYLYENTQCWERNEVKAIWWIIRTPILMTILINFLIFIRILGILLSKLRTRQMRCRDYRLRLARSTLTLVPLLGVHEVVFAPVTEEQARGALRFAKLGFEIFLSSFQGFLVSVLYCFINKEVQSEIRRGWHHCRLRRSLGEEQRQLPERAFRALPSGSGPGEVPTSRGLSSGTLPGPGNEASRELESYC
# Experiments:
# Assay in all cases: cell-based or functional assay
# glucagon receptor = glucagon receptor (UniProt P47871 26-477, limits assumed)
# GLP-1 receptor = GLP-1 receptor (UniProt P43220 24-463, limits assumed)
# GIP receptor = biological target: T1, GIP receptor
# Chain of glucagon receptor (P47871 26-477 limits assumed): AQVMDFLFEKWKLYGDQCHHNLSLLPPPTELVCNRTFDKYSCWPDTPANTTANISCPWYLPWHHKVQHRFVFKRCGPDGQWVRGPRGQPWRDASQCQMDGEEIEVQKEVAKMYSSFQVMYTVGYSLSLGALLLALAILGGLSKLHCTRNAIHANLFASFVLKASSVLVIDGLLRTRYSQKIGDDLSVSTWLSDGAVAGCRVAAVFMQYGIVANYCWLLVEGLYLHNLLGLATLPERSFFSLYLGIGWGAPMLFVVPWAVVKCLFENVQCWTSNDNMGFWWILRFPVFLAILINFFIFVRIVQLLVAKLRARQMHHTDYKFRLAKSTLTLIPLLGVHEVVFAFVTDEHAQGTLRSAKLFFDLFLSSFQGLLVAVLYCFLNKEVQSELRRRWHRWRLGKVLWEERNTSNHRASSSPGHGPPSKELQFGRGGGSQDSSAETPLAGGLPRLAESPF
Binder,EC50 (nM) at glucagon receptor (glucagon receptor) [nM],EC50 (nM) at GLP-1 receptor (GLP-1 receptor) [nM],EC50 (nM) at GIP receptor (GIP receptor) [nM]
H[Aib]QGTFTSDKSKYLDERRA[Aib]DFVQWLMNT-NH2 (not fully specified (residue 10); printed as HaibQGTFTSDK(C16 acyl)SKYLDERRAaibDFVQWLMNT-amide) [peptide of SEQ ID NO: 59],0.051,0.01,7.48
H[Aib]QGTFTSDYSKYLDEK[Aib]AKEFVC(40K‑TE PEG)WLLDT-NH2 [peptide of SEQ ID NO: 52],4.5,0.054,
H[dS]QGTFTSDK(benzoylpropionyl)SKYLDERAAQDFVQWLLDGGPSSGAPPPS-NH2 [peptide of SEQ ID NO: 49],0.063,0.01,
H[Aib]QGTFTSDYSKYLDEKRA[Aib]EFVC(40K‑TE PEG)WLLDT-OH [peptide of SEQ ID NO: 45],0.651,1.44,
H[Aib]QGTFTSDYSKYLDEKRA[Aib]EFV[Aib]WLLC(40K‑TE PEG)T-NH2 [peptide of SEQ ID NO: 42],1.01,0.117,
H[Aib]QGTFTSDYSKYLDEKRA[Aib]DFVC(40K‑TE PEG)WLLDT-NH2 [peptide of SEQ ID NO: 54],0.939,0.097,
H[dS]QGTFTSDK([γGlu-EC16])SKYLDERAAQDFVQWLLDGRG-NH2 (reading uncertain; also: printed as HsQGTFTSDK(gammaGlu-EC16)SKYLDERAAQDFVQWLLDGRG-amide) [peptide of SEQ ID NO: 19],0.004,0.002,0.812
H[Aib]QGTFTSDYSKYLDEKRA[Aib]EFVC(40K‑TE PEG)WLLDE-NH2 [peptide of SEQ ID NO: 16],0.563,0.487,465
H[dS]QGTFTSDK([γGlu-Palmitoyl])SKYLDEQAAKEFIC(12K‑ME PEG)WLLDT-NH2 [peptide of SEQ ID NO: 43],0.02,0.011,
H[Aib]QGTFTSDYSKYLD[Aib]KRAKEFVQWLLDTC(40K‑TE PEG)-NH2 [peptide of SEQ ID NO: 40],1.19,0.653,
H[Aib]QGTFTSDYSKYLDEKRA[Aib]EFVC(40K‑TE PEG)WLLDT-NH2 [peptide of SEQ ID NO: 13],0.141,0.067,
H[Aib]QGTFTSDYSKYLDEKRA[Aib]EFVC(40K‑TE PEG)WLL[Aib]GGPSSGAPPPS-NH2 [peptide of SEQ ID NO: 51],2.04,0.062,
H[dS]QGTFTSDK([γGlu-Palmitoyl])SKYLDEQAAKEFIC(20K‑TE PEG″)WLLDT-NH2 [peptide of SEQ ID NO: 44],0.023,0.017,
H[dA]QGTFTSDK([γGlu-Palmitoyl])SKYLDERAAQDFVQWLLDT-NH2 (N-terminus assumed; SMILES CCCCCCCCCCCCCCCC(=O)N[C@@H](CCC(=O)NCCCC[C@H](NC(=O)[C@H](CC(=O)O)NC(=O)[C@H](CO)NC(=O)[C@@H](NC(=O)[C@H](Cc1ccccc1)NC(=O)[C@@H](NC(=O)CNC(=O)[C@H](CCC(N)=O)NC(=O)[C@@H](C)NC(=O)[C@@H](N)Cc1c[nH]cn1)[C@@H](C)O)[C@@H](C)O)C(=O)N[C@@H](CO)C(=O)N[C@@H](CCCCN)C(=O)N[C@@H](Cc1ccc(O)cc1)C(=O)N[C@@H](CC(C)C)C(=O)N[C@@H](CC(=O)O)C(=O)N[C@@H](CCC(=O)O)C(=O)N[C@@H](CCCNC(=N)N)C(=O)N[C@@H](C)C(=O)N[C@@H](C)C(=O)N[C@@H](CCC(N)=O)C(=O)N[C@@H](CC(=O)O)C(=O)N[C@@H](Cc1ccccc1)C(=O)N[C@H](C(=O)N[C@@H](CCC(N)=O)C(=O)N[C@@H](Cc1c[nH]c2ccccc12)C(=O)N[C@@H](CC(C)C)C(=O)N[C@@H](CC(C)C)C(=O)N[C@@H](CC(=O)O)C(=O)N[C@H](C(N)=O)[C@@H](C)O)C(C)C)C(=O)O) [peptide of SEQ ID NO: 56],0.006,0.02,1.64
H[Aib]QGTFTSDK([γGlu-Palmitoyl])SKYLD[Aib]RAAQDFVQWLMKTK[dE]-OH [peptide of SEQ ID NO: 60],4.6,0.033,147
"HXQGTFTSDKSKYLDERAAQDFVQWLMDT (Aib at 2; Lys 10 acylated, printed K(γEyEC16); C-terminal amide) [peptide of SEQ ID NO: 61]",0.009,0.004,0.676
H[Aib]QGTFTSDYSKYLD[Aib]KRA[Aib]EFVC(40K‑TE PEG)WLLDGGPSSGAPPPS-NH2 [peptide of SEQ ID NO: 46],0.227,0.136,
H[Aib]QGTFTSDYSKYLDEKRA[Aib]EFVC(40K‑TE PEG)WLL[Aib]T-NH2 [peptide of SEQ ID NO: 41],0.309,0.074,
H[dS]QGTFTSDK([γGlu-adamantylacetyl])SKYLDERAAQDFVQWLLDT-NH2 [peptide of SEQ ID NO: 48],0.026,0.039,
H[Aib]QGTFTSDYSKYLD[Aib]KRAKEFVQWLLC(40K‑TE PEG)T-OH [peptide of SEQ ID NO: 39],0.852,1.28,
H[Aib]QGTFTSDYSKYLDEKRA[Aib]EFVC(40K‑TE PEG)WLLDGGPSSGAPPPS-NH2 [peptide of SEQ ID NO: 47],0.591,0.052,
H[dS]QGTFTSDK(EDTA amide)SKYLDERAAQDFVQWLLDGGPSSGAPPPS-NH2 [peptide of SEQ ID NO: 55],4.34,0.108,
H[Aib]QGTFTSDYSKYLD[Aib]KRA[Aib]EFVC(40K‑TE PEG)WLLDT-NH2 [peptide of SEQ ID NO: 38],0.141,0.31,
H[Aib]QGTFTSDK(Palmitoyl)SKYLDSRRA[Aib]DFVQWLMNT-NH2 (N-terminus assumed; SMILES CCCCCCCCCCCCCCCC(=O)NCCCC[C@H](NC(=O)[C@H](CC(=O)O)NC(=O)[C@H](CO)NC(=O)[C@@H](NC(=O)[C@H](Cc1ccccc1)NC(=O)[C@@H](NC(=O)CNC(=O)[C@H](CCC(N)=O)NC(=O)C(C)(C)NC(=O)[C@@H](N)Cc1c[nH]cn1)[C@@H](C)O)[C@@H](C)O)C(=O)N[C@@H](CO)C(=O)N[C@@H](CCCCN)C(=O)N[C@@H](Cc1ccc(O)cc1)C(=O)N[C@@H](CC(C)C)C(=O)N[C@@H](CC(=O)O)C(=O)N[C@@H](CO)C(=O)N[C@@H](CCCNC(=N)N)C(=O)N[C@@H](CCCNC(=N)N)C(=O)N[C@@H](C)C(=O)NC(C)(C)C(=O)N[C@@H](CC(=O)O)C(=O)N[C@@H](Cc1ccccc1)C(=O)N[C@H](C(=O)N[C@@H](CCC(N)=O)C(=O)N[C@@H](Cc1c[nH]c2ccccc12)C(=O)N[C@@H](CC(C)C)C(=O)N[C@@H](CCSC)C(=O)N[C@@H](CC(N)=O)C(=O)N[C@H](C(N)=O)[C@@H](C)O)C(C)C) [peptide of SEQ ID NO: 58],0.09,0.025,35.7
